Experimental data published in patent publication US20230095558A1 (SPARX BIOTECH JIANGSU, published 2023).
No end group written: not given here.

B1: K5-20-peptide (targeting TIM3) (peptide)
peptide: WQQNNPHLWDVFLGVPRTTE
notes: Synthetic 20-mer from phage display screening
B2: P1303-12-peptide (targeting TIM3) (peptide)
peptide: ALWPSSSMSSTI
notes: Synthetic 12-mer from phage display screening
B3: P1307-12-peptide (targeting TIM3) (peptide)
peptide: SHDTRSPFTWGR
notes: as for B2
B4: K10-20-peptide (targeting TIM3) (peptide)
peptide: SPFYYSGHQWVPHPRQAASY
notes: as for B1
B5: P29-12-peptide (targeting TIM3) (peptide)
peptide: ADFRVMADMSMY
notes: as for B2
B6: P24-12-peptide (targeting TIM3) (peptide)
peptide: GSWNTFRAQPTI
notes: as for B2
B7: K3-20-peptide (targeting TIM3) (peptide)
peptide: SQEVFAWTFSPRWTTAPKAL
notes: as for B1
B8: K2-20-peptide (targeting TIM3) (peptide)
peptide: FTYAHPVSHRWESSVHVDQW
notes: as for B1
B9: P20-12-peptide (targeting TIM3) (peptide)
peptide: LTPHKHHKHLHA
notes: as for B2

target: T1, TIM3 protein (cat #CHI-MF-210T3-0050, Chimerigen); test: SPR (OpenSPR), TIM3 protein immobilised on chip, peptide in flow
T1 construct: Bought recombinant protein used in SPR; also called TLM3 protein
Procedure: SPR assay: Affinity identification between the TIM3-targeting binding peptides and TIM3 was performed by immobilizing TIM3 protein (50 μg/mL) on the surface of a nanogold sensor chip upon activation of EDC/NHS. […] The competitive binding ability of the TIM3-targeting binding peptides to the ligand was identified by immobilizing the Galectin-9 protein (25 μg/mL) on a sensor chip at a detection concentration of 100 μg/mL for the TIM3-targeting binding peptides, and at a concentration of the mixed sample of 100 μg/mL TIM3-targeting binding peptides and 10 μg/mL TIM3 protein. The detection sample was loaded at a flow rate of 20 μL/min for about 7 min according to the instrument instructions. The KD, ka and kd values were calculated and analyzed by Trace Drawer Evaluation (version 2.0) software.

Going from B1 to HDAFPRPHLFRN (not fully specified) [P1301-12-peptide (targeting TIM3)], the Kd rises from 18 µM to 80.1 µM (4.4-fold). The first binds more tightly here.

Compared with B2, B3 is 4.4-fold higher in Kd: 26.3 µM for the first, 117 µM for the second. The first binds more tightly here.

Compared with B4, B5 is 7.7-fold higher in Kd: 26.1 µM for the first, 200 µM for the second. The first binds more tightly here.

First: B6
Second: B7
The Kd of the first is 210-fold lower: 0.095 µM for the first, 20.1 µM for the second.

Going from B8 to B9, the Kd falls from 227 µM to 24.3 µM (9.3-fold). The second binds more tightly here.

First: B1
Second: HDAFPRPHLFRN (not fully specified) [P1301-12-peptide (targeting TIM3)]
The koff of the first is 3.7-fold higher: 0.016 s⁻¹ for the first, 0.00428 s⁻¹ for the second.

Compared with B2, B3 is 2.6-fold higher in koff: 0.00308 s⁻¹ for the first, 0.00789 s⁻¹ for the second.

Compared with B4, B5 is 3.1-fold lower in koff: 0.023 s⁻¹ for the first, 0.00747 s⁻¹ for the second.

First: B6
Second: B7
The koff of the first is 780-fold lower: 1.69e-05 s⁻¹ for the first, 0.0132 s⁻¹ for the second.

Compared with B8, B9 is 1.6-fold lower in koff: 0.0103 s⁻¹ for the first, 0.00625 s⁻¹ for the second.

B2 showed a kon of 117 M⁻¹ s⁻¹.
